{
  "source": "paper PMC8166773",
  "target": "influenza HA proteins mixture of A/California/7/09 (H1N1), A/Victoria/210/09 (H3N2), and B/Brisbane/",
  "test": "SPR",
  "conditions": "natural protein",
  "data": [
    {"substance": "Pseudomonas taiwanensis lectin (PTL)", "values": [
      {"measurement": "Kd", "value": 8.9, "unit": "nM"},
      {"measurement": "koff", "value": "9.1e-06", "unit": "s⁻¹"}
    ]}
  ]
}
